For 3 molecules, ELISA reading results are on record in US20030232009A1.

Numbering of substitutions follows the chain as printed.

The labels stand for the following.
B1: antibody in the supernatant of B cell culture well 170B8 (antibody, V domains shown)
VH: AVQLLESGGGLIQPGGSLRLSCAASGFTFSSYAMSWVRQAPGKGLEWVSAISGSGGSTFYADSVRGRFTISRDNSKNTLYLQMNSLRVEDTAVYYCAKEVMGPIFFDYWGQGTLVTVSS
VL: EIVLTQSPGTLSLSPGERATLSCRASQSIISSALAWYQQKPGQAPRLLIYGASSRATGIPDRFSGSGSGTDFTLTISRLEPEDFAVYHCQQYGSTPLTFGGGTKVEIK
B2: antibody in the supernatant of B cell culture well 250F2 (antibody, V domains shown)
VH: QVQLVESGGDLVKPGGSLRLSCAASGFSFSGYYLSWIRQAPGKGLEWVSYISLSGSFIKYADSVKGRFTISRDNAKKTLHLQMNSLRAEDTAVYYCARRTGTTTVFDYWGQGTLVTVSS
VL: EVVMTQSPATLSVSPGERATLSCRASQSVNSNLAWYQQRPGQAPRLLIYGASTRVTGIPARFSGSGSGTEFTLTISSLQSEDFAVYYCQQYNNWPLTFGGGTKVEIK
B3: antibody in the supernatant of B cell culture well 283B2 (antibody, V domains shown)
VH: QVQLVESGGGLVKPGGSLRLSCAASGFTFNVYYMNWIRQAPGKGLEWVSYISTSSSAIYYADSVKGRFTISRDNAKNSLYLQMNSLRAEDTAVYYCARRTGSTTVFDYWGQGTLVTVSS
VL: B2 VL with V2I, M4L, V29I, S31N, R39K, V55A, R61K, D82N, N93K

This assay addresses Human 20.2 + 18mer. Nature of the assay: ELISA, well supernatant on coated peptides. A general note: In an ELISA, binding on a coated surface is turned into a signal by an enzyme label.
B1: the ELISA reading was determined as 1.7. For B2 the value was 0.4.

B3: the ELISA reading stood at 0.5.
